# Source: article PMC3121528 (The Journal of Biological Chemistry, 2011)
# What was measured:
# [1] = molecular target: FLAG-tagged B14 F130K (vaccinia virus strain Western Reserve) (UniProt P24772); experiment: co-IP
# [2] = molecular target: FLAG-tagged B14 Y35E (vaccinia virus strain Western Reserve), P24772; experiment: co-IP; details: remark: other sources report otherwise
# SEC-MALS = molecular target: the molecule itself; experiment: SEC-MALS
molecule,measurement,setting,value
N-terminally HA-tagged IκB kinase β (IKKβ) (from UniProt O14920 1-756) (enzyme),co-precipitated IKKβ relative to wild-type B14 (% of wild-type B14),[1],1
"N-terminally HA-tagged IκB kinase β (IKKβ), O14920 1-756 (enzyme) MSWSPSLTTQTCGAWEMKERLGTGGFGNVIRWHNQETGEQIAIKQCRQELSPRNRERWCLEIQIMRRLTHPNVVAARDVPEGMQNLAPNDLPLLAMEYCQGGDLRKYLNQFENCCGLREGAILTLLSDIASALRYLHENRIIHRDLKPENIVLQQGEQRLIHKIIDLGYAKELDQGSLCTSFVGTLQYLAPELLEQQKYTVTVDYWSFGTLAFECITGFRPFLPNWQPVQWHSKVRQKSEVDIVVSEDLNGTVKFSSSLPYPNNLNSVLAERLEKWLQLMLMWHPRQRGTDPTYGPNGCFKALDDILNLKLVHILNMVTGTIHTYPVTEDESLQSLKARIQQDTGIPEEDQELLQEAGLALIPDKPATQCISDGKLNEGHTLDMDLVFLFDNSKITYETQISPRPQPESVSCILQEPKRNLAFFQLRKVWGQVWHSIQTLKEDCNRLQQGQRAAMMNLLRNNSCLSKMKNSMASMSQQLKAKLDFFKTSIQIDLEKYSEQTEFGITSDKLLLAWREMEQAVELCGRENEVKLLVERMMALQTDIVDLQRSPMGRKQGGTLDDLEEQARELYRRLREKPRDQRTEGDSQEMVRLLLQAIQSFEKKVRVIYTQLSKTVVCKQKALELLPKVEEVVSLMNEDEKTVVRLQEKRQKELWNLLKIACSKVRGPVSGSPDSMNASRLSQPGQLMSQPSTASNSLPEPAKKSEELVAEAHNLCTLLENAIQDTVREQDQSFTALDWSWLQTEEEEHSCLEQAS",co-precipitated IKKβ relative to wild-type B14 (fold of wild-type B14),[2],0.5
N-terminally His6-tagged wild-type B14 (vaccinia virus strain Western Reserve) (natural protein) MTANFSTHVFSPQHCGCDRLTSIDDVRQCLTEYIYWSSYAYRNRQCAGQLYSTLLSFRDDAELVFIDIRELVKNMPWDDVKDCAEIIRCYIPDEQKTIREISAIIGLCAYAATYWGGEDHPTSNSLNALFVMLEMLNYVDYNIIFRRMN,Kd,SEC-MALS,20.6 ± 0.9 µM
same,stoichiometry N,SEC-MALS,2
